According to paper PMC11499381:
No end group written: not given here.

Legend:
[1] = target: CTR-C-V_(1–154)/RAMP1 (human) (UniProt O60894)
[2] = target: CTR-C-V_(1–154)/RAMP1-C-V_(155–238) (human) (UniProt O60894)
[3] = target: CTR/N-V_(155–238)-RAMP1 (human) (UniProt O60894)
[4] = target: CTR/RAMP1-C-V_(155–238) (human) (UniProt O60894)
[5] = target: N-V_(1–154)-CTR/N-V_(155–238)-RAMP1 (human) (UniProt O60894)
[6] = target: N-V_(1–154)-CTR/RAMP1 (human) (UniProt O60894)
[7] = target: WT CTR/RAMP1 (AMY1 receptor) (human) (UniProt O60894)

Chain of WT CTR (human) (P30988 25-474): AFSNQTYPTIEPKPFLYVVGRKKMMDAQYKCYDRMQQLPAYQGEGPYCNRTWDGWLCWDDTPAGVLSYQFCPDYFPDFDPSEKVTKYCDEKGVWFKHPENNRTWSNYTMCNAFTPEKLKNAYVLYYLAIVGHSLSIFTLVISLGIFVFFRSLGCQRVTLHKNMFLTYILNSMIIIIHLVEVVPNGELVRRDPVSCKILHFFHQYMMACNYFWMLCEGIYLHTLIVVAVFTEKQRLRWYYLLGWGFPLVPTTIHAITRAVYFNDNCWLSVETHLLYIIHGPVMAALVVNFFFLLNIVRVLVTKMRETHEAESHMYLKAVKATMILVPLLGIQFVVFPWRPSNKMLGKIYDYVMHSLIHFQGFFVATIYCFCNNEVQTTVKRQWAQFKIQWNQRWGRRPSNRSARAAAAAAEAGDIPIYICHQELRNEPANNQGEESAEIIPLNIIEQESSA

Emax of h-αCGRP-stimulated cAMP production, Cos7 cells, percent of the matched WT curve [1]	pEC50 of h-αCGRP-stimulated cAMP production, Cos7 cells, 15 min [1] [pEC50]	Emax of h-αCGRP-stimulated cAMP production, Cos7 cells, percent of the matched WT curve [2]	pEC50 of h-αCGRP-stimulated cAMP production, Cos7 cells, 15 min [2] [pEC50]	Emax of h-αCGRP-stimulated cAMP production, Cos7 cells, percent of the matched WT curve [3]	pEC50 of h-αCGRP-stimulated cAMP production, Cos7 cells, 15 min [3] [pEC50]	Emax of h-αCGRP-stimulated cAMP production, Cos7 cells, percent of the matched WT curve [4]	pEC50 of h-αCGRP-stimulated cAMP production, Cos7 cells, 15 min [4] [pEC50]	Emax of h-αCGRP-stimulated cAMP production, Cos7 cells, percent of the matched WT curve [5]	pEC50 of h-αCGRP-stimulated cAMP production, Cos7 cells, 15 min [5] [pEC50]	Emax of h-αCGRP-stimulated cAMP production, Cos7 cells, percent of the matched WT curve [6]	pEC50 of h-αCGRP-stimulated cAMP production, Cos7 cells, 15 min [6] [pEC50]	pEC50 of h-αCGRP-stimulated cAMP production, Cos7 cells, 15 min, CTR without RAMP1 (WT CTR (human)) [pEC50]	pEC50 of h-αCGRP-stimulated cAMP production, Cos7 cells, 15 min (WT control of the N-terminal series) [7] [pEC50]	fold loss of calcitonin potency (cAMP production) against WT CTR, Cos7 cells (CTR-C-V_(1–154) (human)) [fold]	fold loss of calcitonin potency (cAMP production) against WT CTR, Cos7 cells (N-V_(1–154)-CTR (human)) [fold]	Molecule
81.2 % of WT	8.41	71.5 % of WT	7.52	74.9 % of WT	8.16	83.5 % of WT	8.62	77.3 % of WT	8.83	74 % of WT	8.92	6.63	9.1	–	–	Human αCGRP (from UniProt P06881 83-119) (peptide)
–	–	–	–	–	–	–	–	–	–	–	–	–	–	3	10	CGNLSTCMLGTYTQDFNKFHTFPQTAIGVGAP (ends and bridges not checked; cysteine pairing not given here) [Human calcitonin]
